Test results published in patent US20240218070A1 (MERUS N V, published 2024).

Assays:
[1] = biological target: T1, human TGF-βRII expressed on cells (human, UniProt P37173 23-567); experiment: cell-based or functional assay
[2] = biological target: T1, human TGF-βRII expressed on cells; experiment: cell-based or functional assay; remark: listed apart in the source

T1 sequence (P37173 23-567 limits assumed, form in doubt): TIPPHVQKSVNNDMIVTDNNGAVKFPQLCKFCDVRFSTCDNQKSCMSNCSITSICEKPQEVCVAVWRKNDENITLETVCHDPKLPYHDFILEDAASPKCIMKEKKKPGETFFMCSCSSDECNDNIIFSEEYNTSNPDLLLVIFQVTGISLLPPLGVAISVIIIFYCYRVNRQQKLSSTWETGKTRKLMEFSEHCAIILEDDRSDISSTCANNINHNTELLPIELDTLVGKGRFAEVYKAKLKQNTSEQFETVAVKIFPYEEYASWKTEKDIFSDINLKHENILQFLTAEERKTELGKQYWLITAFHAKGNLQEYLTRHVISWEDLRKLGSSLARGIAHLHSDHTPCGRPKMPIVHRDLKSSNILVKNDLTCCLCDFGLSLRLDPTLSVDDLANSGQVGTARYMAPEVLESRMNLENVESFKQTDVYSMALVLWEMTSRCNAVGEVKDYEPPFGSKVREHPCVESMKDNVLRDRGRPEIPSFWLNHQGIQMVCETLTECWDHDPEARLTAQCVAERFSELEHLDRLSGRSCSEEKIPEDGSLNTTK

B1: Analog reference TGF-βRII antibody TGF1 (antibody, human IgG1, kappa, V domains shown)
VH: QLQVQESGPGLVKPSETLSLTCTVSGGSISNSYFSWGWIRQPPGKGLEWIGSFYYGEKTYYNPSLKSRATISIDTSKSQFSLKLSSVTAADTAVYYCPRGPTMIRGVIDSWGQGTLVTVSS
VL: EIVLTQSPATLSLSPGERATLSCRASQSVRSYLAWYQQKPGQAPRLLIYDASNRATGIPARFSGSGSGTDFTLTISSLEPEDFAVYYCQQRSNWPPTFGQGTKVEIKR
Primary CAF IL-11 IC50, BLDA [1]: 1.04 µg/mL
Primary CAF IL-11 IC50, COAD(1) [1]: 1.22 µg/mL
Primary CAF IL-11 IC50, COAD(2) [1]: 0.313 µg/mL
Primary CAF IL-11 IC50, GBM [1]: 0.264 µg/mL
Primary CAF IL-11 IC50, HNSC [1]: 20.2 µg/mL
Primary CAF IL-11 IC50, LUAD [1]: 0.765 µg/mL
Primary CAF IL-11 IC50, LUSC [1]: 0.085 µg/mL
Primary CAF IL-11 IC50, MEL [1]: 0.588 µg/mL
Primary CAF IL-11 IC50, OV [1]: 0.191 µg/mL
Primary CAF IL-11 IC50, PAAD [1]: 0.38 µg/mL
Primary CAF pSMAD IC50, BLDA [1]: 0.087 ug/ml
Primary CAF pSMAD IC50, COAD(1) [1]: 0.081 ug/ml
Primary CAF pSMAD IC50, COAD(2) [1]: 0.023 ug/ml
Primary CAF pSMAD IC50, GBM [1]: 0.048 ug/ml
Primary CAF pSMAD IC50, HNSC [1]: 0.714 ug/ml
Primary CAF pSMAD IC50, LUAD [1]: 0.078 ug/ml
Primary CAF pSMAD IC50, LUSC [1]: 0.125 ug/ml
Primary CAF pSMAD IC50, MEL [1]: 0.117 ug/ml
Primary CAF pSMAD IC50, OV [1]: 0.188 ug/ml
Primary CAF pSMAD IC50, PAAD [1]: 0.126 ug/ml
IL-11 IC50, TGF-β1-stimulated primary colon CAFs [2]: 0.0526 µg/mL
pSMAD2 IC50, TGF-β1-stimulated primary colon CAFs [2]: 0.00929 ug/ml
